No end group written: not given here.
T1: recombinant His-tagged tenascin-C C domain (TNC-C)
T1 construct: 112 amino acids, expressed in E. coli from pET28a+ with N-terminal His-tag
T1 chain: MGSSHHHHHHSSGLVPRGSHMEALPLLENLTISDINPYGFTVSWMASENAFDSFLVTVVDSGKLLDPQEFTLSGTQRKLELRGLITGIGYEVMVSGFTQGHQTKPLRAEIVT

T2: recombinant His-tagged Neuropilin-1 b1b2 domain (UniProt O14786 273-586, limits assumed)
T2 construct: domain: b1b2; also called NRP-1; NRP1
T2 sequence (looked up): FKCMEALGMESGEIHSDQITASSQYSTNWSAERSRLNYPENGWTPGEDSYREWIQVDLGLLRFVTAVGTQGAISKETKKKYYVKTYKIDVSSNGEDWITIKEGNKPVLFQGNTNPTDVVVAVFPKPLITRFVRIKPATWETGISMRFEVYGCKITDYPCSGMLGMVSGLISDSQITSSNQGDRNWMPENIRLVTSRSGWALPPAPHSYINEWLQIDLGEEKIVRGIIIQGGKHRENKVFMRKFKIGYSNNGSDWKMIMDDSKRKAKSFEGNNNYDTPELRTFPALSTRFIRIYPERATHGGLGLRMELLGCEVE


Legend:
[1] = target: T1, recombinant His-tagged tenascin-C C …; experiment: T7 phage binding to recombinant protein
[2] = target: T3, recombinant His-tagged fibronectin extra domain B (FN-EDB); experiment: T7 phage binding to recombinant protein
T3 construct: 112 amino acids, expressed in E. coli from pET28a+ with N-terminal His-tag; also called fibronectin EDB-domain

[3] = target: T2, recombinant His-tagged Neuropilin-1 …; experiment: T7 phage binding to recombinant NRP-1 b1b2
[4] = target: T1, recombinant His-tagged tenascin-C C …; experiment: binding specificity, T7 peptide phage
Protocol: (§1) To identify bispecific peptides that interact with both TNC-C and FN-EDB, cross screens were performed on both targets. During the first round of selection, microtiter plates coated with 20 μg/ml recombinant purified TNC-C were blocked with PBS containing 1% bovine serum albumin (BSA), followed by incubation with 5×10⁸ pfu of phages in PBS at 4° C. overnight, by washes to remove background, and by phage rescue and amplification in BLT5403 strain of E. coli (Novagen, EMD Biosciences, MA, USA) (Teesalu et al., Methods Enzymol. 503:35-56 (2012)). The following rounds of biopanning were carried on Ni-NTA Magnetic Agarose Beads (QIAGEN, Hilden, Germany) coated with hexahistidine-tagged FN-EDB (3 μg/μl beads) at room temperature. After 5 rounds of selection, a set of random clones was sequenced, and individual peptide-phage clones and control (G7 peptide-displaying or insertless) phages were incubated with FN-EDB and TNC-C-coated magnetic beads. RPARPAR phage (SEQ ID NO:5) and His-tagged NRP-1 b1b2 domain were used as positive control (Teesalu et al., Proc. Natl. Acad. Sci. U.S.A 106:16157-62 (2009)). To address the specificity of the peptide phage binding to the FN-EDB and TNC-C, the protein-coated beads were pre-incubated with 20 μg/ml blocking rabbit polyclonal antibodies.
(§2) Immobilized FAM-PL1 was probed with recombinant His-tagged EDB and TNC-C (or control BSA), followed by sequential incubation with rabbit anti-His-tag primary antibody, secondary goat anti-rabbit HRP antibody and a chromogenic peroxidase reaction.

[5] = target: T3, recombinant His-tagged fibronectin …; experiment: binding specificity, T7 peptide phage
Protocol: as §1, §2

[6] = target: T2, recombinant His-tagged Neuropilin-1 …; experiment: T7 phage binding to protein-coated magnetic beads

Binder | binding result [1] | binding result [2] | fold more than heptaglycine control phage [3] [fold] | binding result [4] | binding result [5] | binding result [6]
AGRGRLVR (also: displayed on T7 phage, fusion site not given here, also called PL3 phage; PL-3 phage) [PL3 peptide displayed on T7 phage (AGRGRLVR)] | binds | no binding | ~200 |  |  | 
PPRRGLIKLKTS (not fully specified (N-terminus); also: displayed on T7 phage capsid protein, also called PL1 phage) [PL1 peptide displayed on T7 phage (PPRRGLIKLKTS)] |  |  |  | binds | binds | no binding
